Target: T1, EGFR on the surface of A431 cells (human, UniProt P00533 25-1210)
T1 construct: whole, on cells; also called cell surface EGFR
Assay: flow cytometry on A431 cells with cetuximab or rituximab pre-incubation

B1: ONC-scFvEGFR (onconase (ONC) fused to a single-chain antibody fragment (scFv) against EGFR) (scFv)
chain: QDWLTFQKKHITNTRDVDCDNIMSTNLFHCKDKNTFIYSRPEPVKAICKGIIASKNVLTTSEFYLSDCNVTSRPCKYKLKKSTNKFCVTCENQAPVHFVGVGSCGGGGSGGGGSGGGGSEVQLVESGGGLVQPGGSLRLSCAASGFSLTNYGVHWVRQAPGKGLEWLGVIWSGGNTDYNTPFTSRFTISRDNSKNTLYLQMNSLRAEDTAVYYCARALTYYDYEFAYWGQGTTVTVSSGGGGSGGGGSGGGGSDIQLTQSPSFLSASVGDRVTITCRASQSIGTNIHWYQQKPGKAPKLLIKYASESISGVPSRFSGSGSGTEFTLTISSLQPEDFATYYCQQNNNWPTTFGAGTKLEIKRAAAEQKLISEEDLNGAAHHHHHH
notes: also called immunoRNase; fusion polypeptide
  binding result: binds
